In US20200199204A1 (UNITED STATES OF AMERICA AS REPRESENTED BY THE SECRETARY …, published 2020):

Experiments:
Assay in all cases: cell-based or functional assay
HIV-1 Env of CAP256.PI = HIV-1 Env of CAP256.PI (HIV-1)
HIV-1 Env of CAP256.SU = HIV-1 Env of CAP256.SU (HIV-1)
HIV-1 Env of 96ZM651.02 = HIV-1 Env of 96ZM651.02 (HIV-1)
HIV-1 Env of CAP210.E8 = HIV-1 Env of CAP210.E8 (HIV-1)
HIV-1 Env of CAP244.D3 = HIV-1 Env of CAP244.D3 (HIV-1)
HIV-1 Env of CAP45.G3 = HIV-1 Env of CAP45.G3 (HIV-1)
HIV-1 Env of DU156.12 = HIV-1 Env of DU156.12 (HIV-1)
HIV-1 Env of DU172.17 = HIV-1 Env of DU172.17 (HIV-1)
HIV-1 Env of DU422.01 = HIV-1 Env of DU422.01 (HIV-1)
HIV-1 Env of ZM109.4 = HIV-1 Env of ZM109.4 (HIV-1)
HIV-1 Env of ZM135.10a = HIV-1 Env of ZM135.10a (HIV-1)
HIV-1 Env of ZM197.7 = HIV-1 Env of ZM197.7 (HIV-1)
HIV-1 Env of ZM214.15 = HIV-1 Env of ZM214.15 (HIV-1)
HIV-1 Env of ZM233.6 = HIV-1 Env of ZM233.6 (HIV-1)
HIV-1 Env of ZM249.1 = HIV-1 Env of ZM249.1 (HIV-1)
HIV-1 Env of ZM53.12 = HIV-1 Env of ZM53.12 (HIV-1)
HIV-1 Env of 0260.v5.c36 = HIV-1 Env of 0260.v5.c36 (HIV-1)
HIV-1 Env of BG505.w6m = HIV-1 Env of BG505.w6m (HIV-1)
HIV-1 Env of KER2008.12 = HIV-1 Env of KER2008.12 (HIV-1)
HIV-1 Env of KER2018.11 = HIV-1 Env of KER2018.11 (HIV-1)
HIV-1 Env of MB201 = HIV-1 Env of MB201 (HIV-1)
HIV-1 Env of MB539.2B7 = HIV-1 Env of MB539.2B7 (HIV-1)
HIV-1 Env of Q168.a2 = HIV-1 Env of Q168.a2 (HIV-1)
HIV-1 Env of Q23.17 = HIV-1 Env of Q23.17 (HIV-1)
HIV-1 Env of Q259.d2.17 = HIV-1 Env of Q259.d2.17 (HIV-1)
HIV-1 Env of Q461.e2 = HIV-1 Env of Q461.e2 (HIV-1)
HIV-1 Env of Q769.d22 = HIV-1 Env of Q769.d22 (HIV-1)
HIV-1 Env of Q842.d12 = HIV-1 Env of Q842.d12 (HIV-1)
HIV-1 Env of RW020.2 = HIV-1 Env of RW020.2 (HIV-1)
HIV-1 Env of UG037.8 = HIV-1 Env of UG037.8 (HIV-1)
HIV-1 Env of 6535.3 = HIV-1 Env of 6535.3 (HIV-1)
HIV-1 Env of AC10.29 = HIV-1 Env of AC10.29 (HIV-1)
HIV-1 Env of CAAN.A2 = HIV-1 Env of CAAN.A2 (HIV-1)
HIV-1 Env of PVO.04 = HIV-1 Env of PVO.04 (HIV-1)
HIV-1 Env of QH0692.42 = HIV-1 Env of QH0692.42 (HIV-1)
HIV-1 Env of REJO.67 = HIV-1 Env of REJO.67 (HIV-1)
HIV-1 Env of RHPA.7 = HIV-1 Env of RHPA.7 (HIV-1)
HIV-1 Env of SC422.8 = HIV-1 Env of SC422.8 (HIV-1)
HIV-1 Env of THRO.18 = HIV-1 Env of THRO.18 (HIV-1)
HIV-1 Env of TRJO.58 = HIV-1 Env of TRJO.58 (HIV-1)
HIV-1 Env of TRO.11 = HIV-1 Env of TRO.11 (HIV-1)
HIV-1 Env of WITO.33 = HIV-1 Env of WITO.33 (HIV-1)
HIV-1 Env of 191821.E6.1 = HIV-1 Env of 191821.E6.1 (HIV-1)
HIV-1 Env of 3016.V5.c36 = HIV-1 Env of 3016.V5.c36 (HIV-1)
HIV-1 Env of 6405.v4.c34 = HIV-1 Env of 6405.v4.c34 (HIV-1)
HIV-1 Env of C1080.c3 = HIV-1 Env of C1080.c3 (HIV-1)
HIV-1 Env of CM244.ec1 = HIV-1 Env of CM244.ec1 (HIV-1)
HIV-1 Env of CNE3 = HIV-1 Env of CNE3 (HIV-1)
HIV-1 Env of TH976.17 = HIV-1 Env of TH976.17 (HIV-1)

B1: CAP256-VRC26.05 (antibody, V domains shown)
VH: EVQLVESGGGVVQPGRSLRLSCAASHFSLSSYGMHWVRQAPGKGLEWVTGISFAGTKTYYGDSVRGRFTVSRDISKNTLFLQMNSLRPDDTAMYYCARDQRYYECEEWASDYYDFGREQPCLDPRGVVGIFDLWGQGTMVTVSS
VL: QSALTQPPSVSAAPGQKVTISCSGNIGNNYVSWYQQVPGTAPKLLIYENNKRPSGIPDRFSGSKSGTSATLVITGLQTGDEADFYCGTWGGSLRTGGVLGTGTRVTVLG
Question: What does the source list for B1?
Answer: neutralization IC50 (HIV-1 Env of CAP256.PI): > 50 µg/mL; neutralization IC50 (HIV-1 Env of CAP256.SU): 0.007 µg/mL; neutralization IC50 (HIV-1 Env of 96ZM651.02): > 50 µg/mL; neutralization IC50 (HIV-1 Env of CAP210.E8): 0.013 µg/mL; neutralization IC50 (HIV-1 Env of CAP244.D3): > 50 µg/mL; neutralization IC50 (HIV-1 Env of CAP45.G3): > 50 µg/mL; neutralization IC50 (HIV-1 Env of DU156.12): > 50 µg/mL; neutralization IC50 (HIV-1 Env of DU172.17): > 50 µg/mL; neutralization IC50 (HIV-1 Env of DU422.01): > 50 µg/mL; neutralization IC50 (HIV-1 Env of ZM109.4): 26.5 µg/mL; neutralization IC50 (HIV-1 Env of ZM135.10a): > 50 µg/mL; neutralization IC50 (HIV-1 Env of ZM197.7): 0.113 µg/mL; neutralization IC50 (HIV-1 Env of ZM214.15): > 50 µg/mL; neutralization IC50 (HIV-1 Env of ZM233.6): 0.003 µg/mL; neutralization IC50 (HIV-1 Env of ZM249.1): > 50 µg/mL; neutralization IC50 (HIV-1 Env of ZM53.12): 0.012 µg/mL; neutralization IC50 (HIV-1 Env of 0260.v5.c36): > 50 µg/mL; neutralization IC50 (HIV-1 Env of BG505.w6m): > 50 µg/mL; neutralization IC50 (HIV-1 Env of KER2008.12): > 50 µg/mL; neutralization IC50 (HIV-1 Env of KER2018.11): 0.012 µg/mL; neutralization IC50 (HIV-1 Env of MB201): > 50 µg/mL; neutralization IC50 (HIV-1 Env of MB539.2B7): > 50 µg/mL; neutralization IC50 (HIV-1 Env of Q168.a2): > 50 µg/mL; neutralization IC50 (HIV-1 Env of Q23.17): > 50 µg/mL; neutralization IC50 (HIV-1 Env of Q259.d2.17): 0.023 µg/mL; neutralization IC50 (HIV-1 Env of Q461.e2): > 50 µg/mL; neutralization IC50 (HIV-1 Env of Q769.d22): > 50 µg/mL; neutralization IC50 (HIV-1 Env of Q842.d12): > 50 µg/mL; neutralization IC50 (HIV-1 Env of RW020.2): > 50 µg/mL; neutralization IC50 (HIV-1 Env of UG037.8): > 50 µg/mL; neutralization IC50 (HIV-1 Env of 6535.3): > 50 µg/mL; neutralization IC50 (HIV-1 Env of AC10.29): > 50 µg/mL; neutralization IC50 (HIV-1 Env of CAAN.A2): > 50 µg/mL; neutralization IC50 (HIV-1 Env of PVO.04): 44.4 µg/mL; neutralization IC50 (HIV-1 Env of QH0692.42): > 50 µg/mL; neutralization IC50 (HIV-1 Env of REJO.67): > 50 µg/mL; neutralization IC50 (HIV-1 Env of RHPA.7): > 50 µg/mL; neutralization IC50 (HIV-1 Env of SC422.8): > 50 µg/mL; neutralization IC50 (HIV-1 Env of THRO.18): > 50 µg/mL; neutralization IC50 (HIV-1 Env of TRJO.58): > 50 µg/mL; neutralization IC50 (HIV-1 Env of TRO.11): > 50 µg/mL; neutralization IC50 (HIV-1 Env of WITO.33): > 50 µg/mL; neutralization IC50 (HIV-1 Env of 191821.E6.1): > 50 µg/mL; neutralization IC50 (HIV-1 Env of 3016.V5.c36): 0.011 µg/mL; neutralization IC50 (HIV-1 Env of 6405.v4.c34): > 50 µg/mL; neutralization IC50 (HIV-1 Env of C1080.c3): > 50 µg/mL; neutralization IC50 (HIV-1 Env of CM244.ec1): 0.517 µg/mL; neutralization IC50 (HIV-1 Env of CNE3): > 50 µg/mL; neutralization IC50 (HIV-1 Env of TH976.17): > 50 µg/mL
